Source: patent publication US9212226B2, “Amino acid sequences directed against CXCR4 and other GPCRs and compounds comprising the same” (Ablynx N.V., priority 2008, dated 2015)
Entries after “also recorded” stand apart in the source; their conditions may differ. One block for each molecule: values may come before it.

Columns and labels:
Assay type in all cases: cell-based
CXCR1 = molecular target: T1, CXCR1 (Homo sapiens, UniProt P25024); assay: CRE/β-galactosidase reporter gene selectivity screen, CXCR1; conditions: up to 2.5, forskolin 3 μM, agonist at 50-80% Emax
T1 sequence (P25024 1-350): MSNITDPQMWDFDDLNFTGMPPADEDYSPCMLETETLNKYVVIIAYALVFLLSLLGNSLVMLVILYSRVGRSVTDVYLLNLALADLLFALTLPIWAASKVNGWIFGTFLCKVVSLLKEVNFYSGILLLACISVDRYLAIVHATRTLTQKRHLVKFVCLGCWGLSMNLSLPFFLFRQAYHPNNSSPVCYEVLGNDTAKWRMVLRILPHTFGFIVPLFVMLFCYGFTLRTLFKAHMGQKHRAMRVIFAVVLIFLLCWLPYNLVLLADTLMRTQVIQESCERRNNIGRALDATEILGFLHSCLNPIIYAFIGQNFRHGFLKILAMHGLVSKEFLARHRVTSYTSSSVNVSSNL
Method: (§1) Data are shown as means±S.E.M. (n=2-3).
(§2) HEK293T cells were maintained at 37° C. in a humidified 5% CO2, 95% air atmosphere in Dulbecco's modified Eagle's medium (DMEM) containing 2 mM L-glutamine, 50 IU/ml penicillin, 50 μg/ml streptomycin, and 10% (v/v) fetal calf serum. Jurkat cells were cultured in a humidified 5% CO2, 95% air atmosphere in a 1:1 mixture of Dulbecco's modified Eagle's medium (DMEM) and Ham's F12 medium containing 2 mM L-glutamine, 50 IU/ml penicillin, 50 μg/ml streptomycin, and 10% (v/v) fetal calf serum. […] [^125 I]-Labelling— Radiolabeling of Nanobodies with ^125I was performed using the Iodo-gen method (Pierce, Rockford, Ill.) according to the manufacturer's protocol. ^125I-labeled Nanobodies was separated from free iodine (>99%) using a Sephadex G-25 gel filtration column (Amersham Biosciences, Piscataway, N.J.). […] Competition Binding Assays— Membranes from HEK293T cells transiently expressing CXCR3 or CXCR4 were prepared 48 h after transfection as follows. Cells were washed and scraped from the cell culture dishes with ice-cold PBS containing 1 mm EDTA. The scraped cells were pelleted at 1500×g for 10 min at 4° C. […] The total protein was determined using a Bradford assay (Bio-Rad). […] Plates were counted by liquid scintillation. […] The accumulated inositol phosphates were isolated by anion exchange chromatography and counted by liquid scintillation. […]

CXCR4 = CXCR4 (Homo sapiens, UniProt P61073); assay: Inositol phosphate accumulation assay in HEK293T cells expressing CXCR4 and Gαqi5; conditions: for inhibition of the CXCL12-induced accumulation of inositol phosphates: CXCL12 30 nM; for agonist activity, inositol phosphate accumulation: up to a concentration of 100 nM
Method: HEK293T cells were maintained at 37° C. in a humidified 5% CO2, 95% air atmosphere in Dulbecco's modified Eagle's medium (DMEM) containing 2 mM L-glutamine, 50 IU/ml penicillin, 50 μg/ml streptomycin, and 10% (v/v) fetal calf serum. Jurkat cells were cultured in a humidified 5% CO2, 95% air atmosphere in a 1:1 mixture of Dulbecco's modified Eagle's medium (DMEM) and Ham's F12 medium containing 2 mM L-glutamine, 50 IU/ml penicillin, 50 μg/ml streptomycin, and 10% (v/v) fetal calf serum. […] [^125 I]-Labelling— Radiolabeling of Nanobodies with ^125I was performed using the Iodo-gen method (Pierce, Rockford, Ill.) according to the manufacturer's protocol. ^125I-labeled Nanobodies was separated from free iodine (>99%) using a Sephadex G-25 gel filtration column (Amersham Biosciences, Piscataway, N.J.). […] Competition Binding Assays— Membranes from HEK293T cells transiently expressing CXCR3 or CXCR4 were prepared 48 h after transfection as follows. Cells were washed and scraped from the cell culture dishes with ice-cold PBS containing 1 mm EDTA. The scraped cells were pelleted at 1500×g for 10 min at 4° C. The pellet was washed and then resuspended in ice-cold membrane buffer (15 mM Tris, pH 7.5, 1 mM EGTA, 0.3 mM EDTA, and 2 mM MgCl2). The cell suspension was homogenized by 10 strokes at 1200 rpm using a Teflon-glass homogenizer and rotor and further subjected to three freeze-thaw cycles using liquid nitrogen. Membranes were separated by centrifugation at 40,000 g for 25 min at 4° C. The membrane pellet was washed and resuspended in ice-cold Tris-sucrose buffer (20 mM Tris, pH 7.4, and 250 mM sucrose) and frozen in liquid nitrogen. The total protein was determined using a Bradford assay (Bio-Rad). Periplasmas (1:10) or ligands were pre-incubated with membranes in binding buffer (50 mM HEPES (pH 7.4), 1 mM CaCl2, 5 mM MgCl2, 100 mM NaCl, 0.5% bovine serum albumin) supplemented with 0.5% BSA for 1 h at 22° C. before the addition of [^125I]-CXCL12 (40 pM) or [^125I]-238D2 (3 nM) or [^125I]-238D4 (3 nM) for additional 2 h at 22° C. […] Membranes were then harvested over polyethylenimine (0.5%)-treated Whatman GF/C filter plates and washed three times with ice cold binding buffer containing 500 mM NaCl. Plates were counted by liquid scintillation. Inositol Phosphate Accumulation Assay— 24 hours post transfection with pcDNA3.1-CXCR4 and pcDNA1-HA-mG {alpha} qi5 (see Verzijl et al, 2008 supra), 250.000 cells were seeded into 24-wells plates and labelled overnight using inositol-free minimal essential medium supplemented with 1 μCi myo-[2-^3H]-inositol. The next day, the cells were washed once to remove not incorporated myo-[2-^3H]-inositol. […] In agonist experiments, the cells were directly stimulated with test compounds and LiCl (10 mM) in assay buffer for 2 h at 37° C. The stimulation was stopped by aspirating the stimulation medium and adding ice-cold 10 mM formic acid. The accumulated inositol phosphates were isolated by anion exchange chromatography and counted by liquid scintillation. CRE Reporter Gene Assay— HEK239T cells were transfected with pCRE/β-galactosidase (Chen W, Shields T S, Stork P J S, Cone R D (1995) Anal Biochem 226:349-354) and plasmids (pcDEF3 or pcDNA3.1) encoding the indicated receptors. 40,000 transfected cells per well were seeded into 96 well plates and grown in DMEM supplemented with 10% fetal calf serum. The medium was replaced 32 h after transfection by serum-free DMEM supplemented with 0.5% bovine serum albumin and ligands as indicated. Following 16 h of ligand incubation, the medium was removed, the cells were lysed in 100 μl of assay buffer (100 mM sodium phosphate buffer at pH 8.0, 4 mM 2-nitrophenol-β-D-pyranoside, 0.5% Triton X-100, 2 mM MgSO4, 0.1 mM MnCl2, and 40 mM β-mercaptoethanol) and incubated at room temperature. […]

CCR5 = CCR5 (Homo sapiens, UniProt P51681); assay: CRE/β-galactosidase reporter gene selectivity screen, CCR5; conditions: up to 2.5, forskolin 3 μM, agonist at 50-80% Emax
Method: as §1, §2

[1] = HEK293T-CXCR4-Gαqi5/30 nM CXCL12, mean ± S.E.M.

Sequence of CCR5 (P51681 whole entry): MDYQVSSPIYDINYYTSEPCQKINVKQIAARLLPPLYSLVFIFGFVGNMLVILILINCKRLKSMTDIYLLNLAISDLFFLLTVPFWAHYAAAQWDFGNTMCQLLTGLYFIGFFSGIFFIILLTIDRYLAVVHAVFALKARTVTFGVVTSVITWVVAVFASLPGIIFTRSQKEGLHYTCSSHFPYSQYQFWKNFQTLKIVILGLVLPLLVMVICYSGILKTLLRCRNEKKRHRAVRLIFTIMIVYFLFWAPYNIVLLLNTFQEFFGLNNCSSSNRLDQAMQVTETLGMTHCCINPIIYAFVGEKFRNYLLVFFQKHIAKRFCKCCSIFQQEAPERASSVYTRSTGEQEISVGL
Sequence of CXCR4 (P61073 whole entry): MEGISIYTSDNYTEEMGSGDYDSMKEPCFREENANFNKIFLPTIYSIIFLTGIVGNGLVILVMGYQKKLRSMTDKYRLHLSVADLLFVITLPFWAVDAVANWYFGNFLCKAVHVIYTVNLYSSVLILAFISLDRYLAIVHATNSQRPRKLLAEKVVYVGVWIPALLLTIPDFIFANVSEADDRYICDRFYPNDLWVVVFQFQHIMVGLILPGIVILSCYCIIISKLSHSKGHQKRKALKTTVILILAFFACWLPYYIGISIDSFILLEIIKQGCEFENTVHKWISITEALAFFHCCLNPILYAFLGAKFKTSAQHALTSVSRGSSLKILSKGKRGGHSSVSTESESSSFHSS

inhibition of the CXCL12-induced accumulation of inositol phosphates (CXCR4): fully inhibited
Imax (%), IP accumulation (CXCR4; [1]): 86 ± 12%
pKi or pIC50, IP accumulation (CXCR4; [1]): 8.51 ± 0.11
B1: 238D2: Nanobody (VHH) raised against human CXCR4, SEQ ID NO: 238 (protein)
VHH: EVQLVESGGGLVQTGGSLRLSCAASGFTFSSYAMSWVRQAPGKGLEWVSGIKSSGDSTRYAGSVKGRFTISRDNAKNMLYLQMYSLKPEDTAVYYCAKSRVSRTGLYTYDNRGQGTQVTVSS
modifications: Nanobody, Nanobody constructs or fragments thereof
effect on agonist-induced response at CXCR1 (CXCR1): do not act as agonists or antagonists; also recorded: do not alter
agonist activity, inositol phosphate accumulation (CXCR4): no intrinsic activity; also recorded: No agonist activity
effect on agonist-induced response at CCR5 (CCR5): do not act as agonists or antagonists; also recorded: do not alter

inhibition of the CXCL12-induced accumulation of inositol phosphates (CXCR4): fully inhibited
Imax (%), IP accumulation (CXCR4; [1]): 90 ± 5%
B2: 238D4: Nanobody (VHH) raised against human CXCR4, SEQ ID NO: 239 (protein)
VHH: EVQLMESGGGLVQAGGSLRLSCAASGRTFNNYAMGWFRRAPGKEREFVAAITRSGVRSGVSAIYGDSVKDRFTISRDNAKNTLYLQMNSLKPEDTAVYTCAASAIGSGALRRFEYDYSGQGTQVTVSS
modifications: Nanobody, Nanobody constructs or fragments thereof
effect on agonist-induced response at CXCR1 (CXCR1): do not act as agonists or antagonists; also recorded: do not alter
agonist activity, inositol phosphate accumulation (CXCR4): no intrinsic activity; also recorded: No agonist activity
effect on agonist-induced response at CCR5 (CCR5): do not act as agonists or antagonists; also recorded: do not alter
